Our source for the Ki values is paper PMC8918029 (Journal of medicinal chemistry, 2021).

Square brackets hold non-standard residues; d marks the D form. * marks the point of attachment. Boc = CC(C)(C)OC(=O)*; Aib = CC(C)(N)C(=O)O

The target in this experiment is γ-secretase complex (presenilin-1, nicastrin, Aph-1, Pen-2) (UniProt Q92542 34-709; Q96BI3 1-265; Q9NZ42 1-101). Description: enzyme inhibition kinetics.

A word on the Ki: it is the equilibrium dissociation constant of an inhibitor or competing ligand from its target. High values mean a looser hold on the target, low ones a stronger hold on the target. The molecule Boc-VG[Aib]VVI[Aib]FV[Aib]GGGVFFLV-NH2 (also: hydroxyethylurea isostere (ψ) between the two Phe (15-16)) [HPI-TSA conjugate 28] had a Ki of 1.19 ± 0.1 nM.
